# Results taken from PMC10027511, “Disordered proteins mitigate the temperature dependence of site-specific binding free energies” (The Journal of Biological Chemistry, 2023).
# Where two headings read alike, the source gives them in different places.
# B1: Site 4: Sos residues 1177 to 1405, L1203A, L1372A, R1375A, C1306S, C1357S, L1346A, R1349A, R1350A (protein, UniProt P26675 1177-1405, looked up, variant L1203A L1372A R1375A C1306S C1357S L1346A R1349A R1350A)
# chain: TSSWSGTPQHTRTDQNNGEVSVPAPHAPKKPGAHVWANNNSTLASASAMDVVFSPALPEHLPPQSLPDSNPFASDTEAPPSPLPKLVVSPRHETGNRSPFHGRMQNSPTHSTASTVTLTGMSTSGGEEFSAGGFYFNSAHQGQPGAVPISPHVNVPMATNMEYRAVPPPAPPAAKERTESSADMAQKRQAPDAPTAPPADGELSPPPIPPRLNHSTGISYLRQSHGKSK
# Legend:
# [1] = molecular target: T1, N-terminal SH3 domain of Drk (T22G, 19F-W36) (Drosophila melanogaster, UniProt Q08012, T22G); assay: 19F NMR titration of SH3 with Sos site 4 (two-state and bidentate fits); type: binding
# T1 construct: the N-terminal SH3 domain of Drk (UniProt ID: Q08012); 19F label: 5-fluorotryptophan at W36 (chemical label on the side chain); made in house
# T1 sequence (Q08012 1-58 T22G): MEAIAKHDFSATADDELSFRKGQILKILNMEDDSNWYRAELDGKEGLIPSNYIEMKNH
# Procedure: Data were acquired using Bruker Avance III HD spectrometers equipped with a QCI cryoprobe (1H Larmor frequencies of 500, and 470 MHz for 19F). Data was processed using NMRpipe (2020.171.18.39) and referenced to trimethylsilylpropanesulfonate to account the temperature dependence of chemical shift. […]
# site 4 (non-MBD tagged construct) was exchanged into of 50 mM HEPES, 50 mM bis-tris propane, 50 mM sodium acetate pH 7.5 plus 5% (v/v) D2O using a PD-10 Midi column (Cytiva) selecting the fractions with the highest concentration for the titration. The Sos solution was used to dissolved one aliquot of SH3, and a second, larger […]
# volume solution of SH3 was prepared in the same buffer, at an identical concentration of SH3. Measurements were made at 4.2, 15, 25, 35 and 45 °C. The sample was then removed, diluted using the larger SH3 solution and returned […]
# (§1) µM, with SH3 at 270 µM (Figure S3, Table S2).
# [2] = tested on: N-terminal SH3 domain of Drk (T22G); assay: ITC of Sos constructs (cell) with SH3 (syringe); type: binding, Drosophila melanogaster; conditions: for Kd: single-site model
# Procedure: volume solution of SH3 was prepared in the same buffer, at an identical concentration of SH3. Measurements were
# made at 4.2, 15, 25, 35 and 45 °C. The sample was then removed, diluted using the larger SH3 solution and returned
# as §1
# [3] = molecular target: N-terminal SH3 domain of Drk (T22G); assay: 1H-13C HMQC titration of SH3 into 13C-Ile Sos site 4 (NMR TITAN); type: binding, Drosophila melanogaster; conditions: for Kd: 51.5 μM Sos site 4, 20 mM sodium phosphate pH 7.5, 5% D2O; for Kd / koff / kon / ΔGA°′‡ (activation free energy of association) / ΔGD°′ (dissociation free energy) / ΔGD°′‡ (activation free energy of dissociation): single measurement, bootstrap; for koff / kon / ΔGA°′‡ (activation free energy of association) / ΔGD°′ (dissociation free energy) / ΔGD°′‡ (activation free energy of dissociation): pH 7.5
# Excerpt: As an alternative, we measured binding of Sos and SH3 from the opposite perspective, that is, by monitoring the interaction via Sos by moving the NMR-active nuclei from SH3 to Sos. Specifically, we isotopically enriched (^13C-δ1 methyl) isoleucines in the site 4 protein construct. This construct has three isoleucines: I1384 is in site 4; I1394 is adjacent to site 4; and I1325 is likely distant from site 4. Assignments were made via mutagenesis (Supplemental Material, Fig. S5). […] High-quality fits were obtained using two-dimensional lineshape analysis (Figs. S6–S10), yielding affinities (Table 1) similar to those from ITC (Table 2), and site 4 peptide, but only at low temperatures (Table 1) ([34]).
# Figure 3 ^1H–^13C HMQC titration of Sos site 4 at 35 °C.A, spectra. B, simulated spectra from TITAN fits. C, van’t Hoff and Eyring analyses of ^1H–^13C HMQC titrations. Measurements were made with a constant concentration of 51.5 μM Sos site 4, with titration points signified by crosspeaks of different colors. SH3 concentrations are 270, 122, 100, 75.0, 50.0, 37.5, 25.0, 12.5, 6.25, 3.13, […], 0.781, 0.391, and 0 μM. HMQC, heteronuclear multiple quantum correlation; Sos, Son of sevenless.
# NMR data were acquired using Bruker Avance III HD spectrometers equipped with QCI cryoprobes (^1H Larmor frequencies of 500, 470 MHz for ^19F), or TCI cryoprobes (^1H Larmor frequencies of 850 MHz, 213 MHz for ^13C). Data were processed using NMRpipe (2020.171.18.39). Spectra across different temperatures are referenced to trimethylsilylpropanesulfonate.
# ^1H–^13C correlation spectra were acquired using a heteronuclear multiple quantum correlation experiment (optimized for the methyl transverse relaxation optimized spectroscopy effect) ([66]) with between 8 and 40 scans, depending on the signal/noise of the Ile1384 peak. The ^1H sweep width was 15 PPM using 5120 complex points and a center frequency at 4.7 PPM. Forty-eight complex points were collected in the indirect dimension, with a sweep width of 5 PPM, and a center frequency of 12.5 PPM. The water signal was suppressed and dephased using a combination of presaturation and selective shaped pulses. Sos site 4 protein was exchanged into 20 mM sodium phosphate, pH 7.5 plus 5% (v/v) D2O using a PD-10 midi desalting column (Cytiva); its concentration was then adjusted to 51.5 μM. Four hundred microliters of Sos site 4 solution were used to dissolve lyophilized SH3 for the initial titration point, and then spectra were acquired at 4.2, 15, 25, 35, and 45 °C. The solution containing only Sos site 4 was used for a series of dilutions to obtain SH3 titration points of 270, 122, 100, 75.0, 50.0, 37.5, 25.0, 12.5, 6.25, 3.13, 1.56, 0.781, 0.391, and 0 μM.
# ^1H–^13C heteronuclear multiple quantum correlation titration measurements of SH3 into [^13CH3-Ile]-labeled Sos were analyzed using NMR TITAN, version 1.6 ([34]). Measurements for each temperature were fit to a two-state interaction model, and parameter uncertainties were estimated from 100 bootstrapped replicas ([34], [67]). Ile1384, Ile1394, Ile1325, and one pseudo peak were fit as a single spin group to account for overlapping resonances. Measurements across multiple temperatures were then fitted to the van’t Hoff and Eyring equations to determine Δ HD°′ , TΔ SD,298.15K°′ , Δ HA°′‡ , TΔ SA,298.15K°′‡ , Δ HD°′‡ , and TΔ SD,298.15K°′‡ . Errors generated from TITAN fits were used to perform weighted least squares regressions, and the reported uncertainties are the 95% confidence intervals of fits.
# [4] = 4.2 °C, bidentate fit, strong site
# [5] = 4.2 °C, bidentate fit, weak/nonspecific site
# [6] = 15 °C, bidentate fit, strong site
# [7] = 15 °C, bidentate fit, weak/nonspecific site
# [8] = 25 °C, bidentate fit, strong site
# [9] = 25 °C, bidentate fit, weak/nonspecific site
# [10] = 35 °C, bidentate fit, strong site
# [11] = 35 °C, bidentate fit, weak/nonspecific site
# [12] = 45 °C, bidentate fit, strong site
# [13] = 45 °C, bidentate fit, weak/nonspecific site
# [14] = 4.2 °C, SMG construct, 20 mM sodium phosphate pH 7.5, knockout subtracted, three fits
# [15] = 298 K, linear Eyring fit, 95% confidence interval
# [16] = linear Eyring fit, 95% confidence interval
molecule,measurement,setting,value
B1,Site 1 koff,[1]; [4],0.080 103 s-1
same,Site 1 kon,[1]; [4],0.37 108 s-1 M-1
same,Kd,"[1]; 4.2 °C, bidentate fit, strong site, 50 mM HEPES, 50 mM bis-tris propane, 50 mM sodium acetate pH 7.5, 5% D2O, MG construct, read-out: Site 1 KD",2.15 µM
same,Site 2 koff,[1]; [5],11 ± 4 103 s-1
same,Site 2 kon,[1]; [5],0.15 108 s-1 M-1
same,Kd,"[1]; 4.2 °C, bidentate fit, weak/nonspecific site, read-out: Site 2 KD",800 µM
same,Kd,"[1]; 4.2 °C, two-state model (poor fit), read-out: KD",0.3 µM
same,Site 1 koff,[1]; [6],0.239 103 s-1
same,Site 1 kon,[1]; [6],0.49 108 s-1 M-1
same,Kd,"[1]; 15 °C, bidentate fit, strong site, pH 7.5, read-out: Site 1 KD",4.9 µM
same,Site 2 koff,[1]; [7],15 ± 4 103 s-1
same,Site 2 kon,[1]; [7],0.10 108 s-1 M-1
same,Kd,"[1]; 15 °C, bidentate fit, weak/nonspecific site, read-out: Site 2 KD",1500 µM
same,Site 1 koff,[1]; [8],0.667 103 s-1
same,Site 1 kon,[1]; [8],0.63 108 s-1 M-1
same,Kd,"[1]; 25 °C, bidentate fit, strong site, pH 7.5, read-out: Site 1 KD",10.6 µM
same,Site 2 koff,[1]; [9],19 ± 5 103 s-1
same,Site 2 kon,[1]; [9],0.06 108 s-1 M-1
same,Kd,"[1]; 25 °C, bidentate fit, weak/nonspecific site, read-out: Site 2 KD",3000 µM
same,Site 1 koff,[1]; [10],1.74 103 s-1
same,Site 1 kon,[1]; [10],0.80 108 s-1 M-1
same,Kd,"[1]; 35 °C, bidentate fit, strong site, pH 7.5, read-out: Site 1 KD",21.7 µM
same,Site 2 koff,[1]; [11],23 ± 7 103 s-1
same,Site 2 kon,[1]; [11],0.04 108 s-1 M-1
same,Kd,"[1]; 35 °C, bidentate fit, weak/nonspecific site, read-out: Site 2 KD",6000 µM
same,Site 1 koff,[1]; [12],4.29 103 s-1
same,Site 1 kon,[1]; [12],1.01 108 s-1 M-1
same,Kd,"[1]; 45 °C, bidentate fit, strong site, pH 7.5, read-out: Site 1 KD",42.6 µM
same,Site 2 koff,[1]; [13],30 ± 10 103 s-1
same,Site 2 kon,[1]; [13],0.03 108 s-1 M-1
same,Kd,"[1]; 45 °C, bidentate fit, weak/nonspecific site, read-out: Site 2 KD",10000 µM
same,Kd,[2]; [14],3 ± 1 µM
same,ΔHD°′,[2]; [14],2.8 ± 0.1 kcal/mol
same,Kd,"[2]; 35 °C (35.1 in Table S1), SMG construct, 20 mM sodium phosphate pH 7.5, knockout subtracted, three fits",14 ± 3 µM
same,"sign of ΔCP,D",[2]; from ΔHD°′ at 4.2 and 35 °C,positive
same,stoichiometry before knockout subtraction,"[2]; unsaturated after >3 mole equivalents, specific plus nonspecific binding",> 1
same,Kd,[3]; 4.2 °C,3 ± 0.2 µM
same,koff,[3]; 4.2 °C,0.093 ± 0.002 10^3 s^−1
same,kon,[3]; 4.2 °C,0.31 ± 0.02 10^8 M^−1 s^−1
same,ΔGA°′‡ (activation free energy of association),[3]; 4.2 °C,6.69 ± 0.07 kcal/mol
same,ΔGD°′ (dissociation free energy),[3]; 4.2 °C,7.01 ± 0.07 kcal/mol
same,ΔGD°′‡ (activation free energy of dissociation),[3]; 4.2 °C,13.70 ± 0.02 kcal/mol
same,temperature dependence of ΔGD°′‡ and ΔGA°′‡,[3]; 4.2–45 °C,do not change with temperature
same,Kd,[3]; 15 °C,4.5 ± 0.2 µM
same,koff,[3]; 15 °C,0.25 ± 0.09 10^3 s^−1
same,kon,[3]; 15 °C,0.56 ± 0.03 10^8 M^−1 s^−1
same,ΔGA°′‡ (activation free energy of association),[3]; 15 °C,6.64 ± 0.06 kcal/mol
same,ΔGD°′ (dissociation free energy),[3]; 15 °C,7.05 ± 0.04 kcal/mol
same,ΔGD°′‡ (activation free energy of dissociation),[3]; 15 °C,13.69 ± 0.04 kcal/mol
same,Kd,[3]; 25 °C,6.4 ± 0.2 µM
same,koff,[3]; 25 °C,0.62 ± 0.03 10^3 s^−1
same,kon,[3]; 25 °C,0.97 ± 0.06 10^8 M^−1 s^−1
same,ΔGA°′‡ (activation free energy of association),[3]; 25 °C,6.56 ± 0.06 kcal/mol
same,ΔGD°′ (dissociation free energy),[3]; 25 °C,7.09 ± 0.03 kcal/mol
same,ΔGD°′‡ (activation free energy of dissociation),[3]; 25 °C,13.64 ± 0.05 kcal/mol
same,Kd,[3]; 35 °C,9.7 ± 0.2 µM
same,koff,[3]; 35 °C,1.25 ± 0.04 10^3 s^−1
same,kon,[3]; 35 °C,1.29 ± 0.05 10^8 M^−1 s^−1
same,ΔGA°′‡ (activation free energy of association),[3]; 35 °C,6.62 ± 0.04 kcal/mol
same,ΔGD°′ (dissociation free energy),[3]; 35 °C,7.07 ± 0.02 kcal/mol
same,ΔGD°′‡ (activation free energy of dissociation),[3]; 35 °C,13.69 ± 0.03 kcal/mol
same,Kd,[3]; 45 °C,17.8 ± 0.5 µM
same,koff,[3]; 45 °C,4.4 ± 0.2 10^3 s^−1
same,kon,[3]; 45 °C,2.5 ± 0.1 10^8 M^−1 s^−1
same,ΔGA°′‡ (activation free energy of association),[3]; 45 °C,6.45 ± 0.05 kcal/mol
same,ΔGD°′ (dissociation free energy),[3]; 45 °C,6.91 ± 0.03 kcal/mol
same,ΔGD°′‡ (activation free energy of dissociation),[3]; 45 °C,13.36 ± 0.05 kcal/mol
same,TΔSA°′‡ (activation entropy of association),[3]; [15],1 ± 1
same,TΔSD°′‡ (activation entropy of dissociation),[3]; [15],1 ± 2
same,TΔSD°′ (van't Hoff),"[3]; 298 K, linear van't Hoff fit, 95% confidence interval",0 ± 2 kcal/mol
same,ΔHA°′‡ (activation enthalpy of association),[3]; [16],7 ± 1 kcal/mol
same,ΔHD°′‡ (activation enthalpy of dissociation),[3]; [16],14 ± 1 kcal/mol
same,ΔHD°′ (van't Hoff),"[3]; linear van't Hoff fit of 4.2-45 °C data, 95% confidence interval",7 ± 2 kcal/mol
